PMC11741300
Where two headings read alike, the source gives them in different places.

How the values were obtained:
Cy3-PARP1 [1] = molecular target: T1, Cy3-PARP1 (Homo sapiens, UniProt P09874 1-1014); test: smTIRFM
Cy3-PARP1 [2] = molecular target: T1, Cy3-PARP1; test: smTIRFM; remark: listed apart in the source
PARP1 (unlabeled) [3] = molecular target: T2, PARP1 (unlabeled) (Homo sapiens, UniProt P09874 1-1014); test: mass photometry
Cy3-PARP1 [4] = molecular target: T1, Cy3-PARP1; test: smTIRFM; remark: listed apart in the source
PARP1 (unlabeled) [5] = molecular target: T2, PARP1 (unlabeled); test: mass photometry; remark: listed apart in the source
PARP1 (unlabeled) [6] = molecular target: T2, PARP1 (unlabeled); test: mass photometry; remark: listed apart in the source
Cy3-PARP1 [7] = molecular target: T1, Cy3-PARP1; test: smTIRFM; remark: listed apart in the source

T1 sequence (P09874 whole entry): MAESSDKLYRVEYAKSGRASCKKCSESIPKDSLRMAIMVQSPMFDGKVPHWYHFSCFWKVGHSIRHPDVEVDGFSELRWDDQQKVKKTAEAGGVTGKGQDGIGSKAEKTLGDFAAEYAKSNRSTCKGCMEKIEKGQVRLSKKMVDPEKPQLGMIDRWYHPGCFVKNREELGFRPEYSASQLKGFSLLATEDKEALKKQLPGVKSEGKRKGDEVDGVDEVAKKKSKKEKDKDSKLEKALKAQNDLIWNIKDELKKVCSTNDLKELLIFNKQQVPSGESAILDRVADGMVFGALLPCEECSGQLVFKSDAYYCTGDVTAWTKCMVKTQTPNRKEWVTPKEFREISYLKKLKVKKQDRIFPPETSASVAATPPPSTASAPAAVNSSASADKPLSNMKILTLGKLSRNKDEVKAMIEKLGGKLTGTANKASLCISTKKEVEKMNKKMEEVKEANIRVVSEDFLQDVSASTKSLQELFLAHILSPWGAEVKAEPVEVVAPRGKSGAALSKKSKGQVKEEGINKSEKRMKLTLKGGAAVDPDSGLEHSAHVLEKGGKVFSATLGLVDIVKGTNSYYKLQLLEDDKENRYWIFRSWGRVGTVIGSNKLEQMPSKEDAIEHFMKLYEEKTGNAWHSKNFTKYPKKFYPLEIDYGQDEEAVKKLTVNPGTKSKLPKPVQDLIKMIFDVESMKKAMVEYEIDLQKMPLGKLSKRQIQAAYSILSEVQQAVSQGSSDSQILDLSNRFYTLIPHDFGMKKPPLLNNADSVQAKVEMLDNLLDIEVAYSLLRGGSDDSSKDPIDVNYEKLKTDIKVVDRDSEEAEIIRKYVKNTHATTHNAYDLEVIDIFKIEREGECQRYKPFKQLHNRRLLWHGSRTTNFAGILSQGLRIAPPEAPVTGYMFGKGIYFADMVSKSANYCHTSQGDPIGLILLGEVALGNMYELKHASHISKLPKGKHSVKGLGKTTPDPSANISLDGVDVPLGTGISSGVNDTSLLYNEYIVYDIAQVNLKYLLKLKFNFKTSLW
T2 sequence (P09874 whole entry): as above

B1: dsDNA (smTIRFM) (dsDNA)
DNA 1: CATGTAGTCACTATGCTACTGTG
DNA 2: CACAGTAGCATAGTGACTACATG
modifications: 3' biotin on strand 1
B1: binds (Cy3-PARP1 [1]).

For GGGCGGGCGCGAGGGAGGGGAGG (structured_DNA, 3' biotin) [cKITG4 (smTIRFM)], the Kd (Cy3-PARP1 [2]) was 0.04 ± 0.002 nM.

B2: cKITG4-PT (MP) (structured_DNA)
DNA: CATGTAGTCACTATGATTAGGCATAGTGACTACATGGGGCGGGCGCGAGGGAGGGGAGGATCTAATGCATTAAGTTCGCTTAATGCATTAGAT
B2: binds (PARP1 (unlabeled) [3]).

B3: nicked (smTIRFM) (structured_DNA)
DNA 1: TGGCGACGGCAGCGAGGCTCTAATGCATTAAGTTCCTTAATGCATTAGA
DNA 2: GCCTCGCTGCCGTCGCCA
modifications: 3' biotin on strand 2
Work on B3 yielded a Kd (Cy3-PARP1 [4]) of 2.67 ± 0.16 nM and a Kd (Cy3-PARP1 [2]) of 3.96 ± 0.2 nM.

B4: ssDNA (dT)90 (MP) (ssDNA)
DNA: TTTTTTTTTTTTTTTTTTTTTTTTTTTTTTTTTTTTTTTTTTTTTTTTTTTTTTTTTTTTTTTTTTTTTTTTTTTTTTTTTTTTTTTTTT
B4: no binding (PARP1 (unlabeled) [5]).

B5: cKITG4-PT (smTIRFM) (structured_DNA)
DNA 1: TGGCGACGGCAGCGAGGCGGGCGGGCGCGAGGGAGGGGAGGTCTAATGCATTAAGTTCCTTAATGCATTAGA
DNA 2: GCCTCGCTGCCGTCGCCA
modifications: 3' biotin on strand 2
B5 gave a Kd (Cy3-PARP1 [2]) of 3.24 ± 0.09 nM.

B6: nicked (MP) (structured_DNA)
DNA: CATGTAGTCACTATGAGGCATAGTGACTACATGATCTAATGCATTAAGTTCCTTAATGCATTAGAT
B6: binds (PARP1 (unlabeled) [6]).

TGGGTGGGTAGGGTGGGTTT (structured_DNA, 3' biotin) [cMYCG4]: binds (Cy3-PARP1 [7]).
